B1: SH3 and PX domain-containing protein 2B, residues 155 to 209; numbered along this chain, A1X283 (parent)
chain: EQYVVVANYQKQESSEISLSVGQVVDIIEKNESGWWFVSTAEEQGWVPATCLEGQ

Variants of: B1
Test: abundance fitness (aPCA) (normalised: wild type 0, dead -1); higher = more abundant; growth selection in yeast, the domain comes from the species named
Conditions: Homo sapiens

Abundance fitness, by site and new letter:
E16: V -0.92; T -0.178; F -0.868; W -0.55; N -0.2; Q -0.008; L -0.805; D -0.211; K -0.16; Y -0.853; S -0.177; C -0.505; M -0.449; I -0.692; A -0.312; G 0.057; P -0.667
L19: M -0.545; I -0.149; K -0.957; D -0.894; C -0.035; Q -0.865; P -0.831; Y -0.665; E -0.768; T -0.604; A -0.482; F -0.441; G -0.838; W -0.899; N -0.966
E13: I -0.037; G -0.074; W -0.467; L -0.178; T -0.104; P -0.598; A -0.359; Y -0.248; F -0.229; N -0.046; H -0.154; R -0.182; K -0.015; M -0.025; V -0.065; D -0.111; S -0.158; C -0.19
V24: Q -0.215; W -0.075; D -0.277; E 0.027; Y -0.263; R -0.135; M -0.137; G -0.157; A -0.008; T -0.109; S -0.071; K 0.069; L -0.128; H -0.284; F -0.239; C -0.035; I -0.026; P -0.135; N 0.001
S15: I -0.201; L -0.27; Y -0.092; P -0.121; A -0.01; G -0.073; N -0.061; Q 0.103; C -0.063; V -0.119; T -0.103; D 0.02; H 0.055; E -0.172; W -0.049; R 0.04; M -0.18; F -0.244
Q10: T -0.058; M -0.476; I -0.128; E 0.125; K -0.192; G -0.322; W -0.334; R -0.071; H -0.145; F -0.257; D -0.266; A 0.003; C -0.135; L -0.044; Y -0.333
V5: S -0.099; W -0.938; Q -0.994; T -0.309; R -1.04; P -0.892
A7: M -0.15; D -0.046; W -0.286; G -0.098; R -0.066; K -0.024; H -0.394; Q -0.106; C -0.25; L -0.101; E -0.088; S -0.052; Y 0.025; I -0.32; F -0.076; N -0.09
Q23: L -0.288; P -0.978; R -0.405; H -0.136; T -0.085; W -0.292; D -0.034; G -0.263; N -0.037; F -0.741; I -0.308; E 0.001; M -0.039
V21: K 0.092; Q -0.036; N -0.342; F -0.286; C -0.025; M -0.066; S -0.238; A -0.043; G -0.453; L -0.188; E 0.096; D -0.593; I -0.166; Y -0.444; P -0.315; W -0.566; R -0.005; T -0.061
V6: L -0.199; E -0.366; Y -0.262; N -0.214; A 0.049; F -0.131; Q -0.199; C -0.151; P -0.529; S -0.087; W -0.326; K 0.056; G -0.151; I 0.054
I17: V -0.048; L -0.055; H -0.715; E -0.99; F -0.597; N -0.733; D -0.889; T -0.114; M -0.053; R -0.332; Q -0.672; K -0.692; C 0.014; S -0.576; G -0.863; P -0.769; A -0.201
K11: N -0.33; A -0.106; Y -0.465; H 0.064; P -0.034; F -0.689; Q -0.132; W -0.496; E -0.183; L -0.433; T -0.357; R 0.069; G -0.015; S -0.072; M -0.115
S14: R -0.073; A -0.13; G -0.071; L 0.027; T -0.036; Q -0.347; P -0.005; H -0.125; K 0.026; Y -0.073; C -0.018; F -0.458; W -0.171; I 0.014; V 0.014; N 0.083; M -0.05
Q12: G -0.14; D -0.241; Y -0.313; R -0.066; C -0.228; S -0.038; M -0.182; P -0.276; E -0.195; I -0.19; V 0.02; F 0.001; H -0.114; K 0.013; N -0.183
V25: L -0.378; N -0.95; K -0.902; W -0.983; P -0.825; C -0.393; F -0.964; R -0.945; T -0.513; M -0.801; G -0.878; E -0.752; S -0.95; I -0.317; H -0.656
Y9: F 0.011; K -0.619; M -0.508; A -0.774; T -0.312; V -0.249; W 0.094; C -0.648; I -0.809; G -0.81; D -0.491; E -0.597; S -0.484; Q -0.744; R -0.21; N -0.616
S20: Q -0.126; K -0.075; A -0.13; H -0.01; T -0.055; D -0.317; F -0.085; V -0.077; G -0.239; W -0.165; L 0.015; C -0.209; E 0.09; Y -0.143; P -0.536; R -0.082
S18: R -0.646; F -0.157; I -0.528
G22: Y -0.498; M -0.617; A -0.5; W -0.834; P -0.83; E -0.673; H -0.581; I -1.05; F -0.91; V -0.945; T -0.588; K -0.789; N -0.33; R -0.549; D -0.246; C -0.638; Q -0.512; S -0.503; L -0.921
N8: I -0.501; L -0.447; G 0.012; M -0.305; D 0.04; H -0.102; F -0.26; V -0.296; Q -0.105; W -0.524; T 0.018; P -0.069; K -0.083; Y -0.448; A 0.093; E -0.068
D26: H -0.214; S -0.122; E -0.112; R -0.103; N 0.146; M -0.134; K 0.028; Q -0.052; C -0.269; F -0.262; I -0.508; P -0.928; A -0.054; T -0.109; L -0.078; G -0.126

— the Human Domainome abundance scans (Beltran et al. 2025)
